Results: patent publication US20040248275A1, “Engineered bacterial aggregates” (priority 2003, published 2004)

What was measured:
Format in all cases: cell-based
E. coli C600 (K12) = assay: Lectin aggregation of bacterial cells (microtitre wells, semi-quantitative score); set-up: key: Where the addition of lectins did not cause the aggregation of cells, a score of “0” was assigned; Lectins that caused cellular-aggregation to give small flocs in a turbid suspension were given a score of “+”; A score of “++” was given to lectin-cell aggregate mixes that resulted in large aggregates seen by eye in a turbid suspension; Lectins that caused cellular aggregation to give easily visible aggregates in a clear solution were given a score of “+++”; conditions: cells O.D. 0.5 at 650 nm
Description: (§1) Assay approach: Six lectins were chosen to discover their suitability for the aggregation of different species of bacteria. These were Concanavalin A, Lentil lectin, Pseudomonas aeruginosa lectin, peanut lectin, Limulus polyphemus lectin and wheat germ lectin.
(§2) The ability of the lectins to aggregate bacterial cells was studied by mixing cells at an O.D. of 0.5 at 650 nm with different lectins at different concentrations. The extent of aggregation was determined by a semi-quantitative approach. […] Lectins that caused cellular-aggregation to give small flocs in a turbid suspension were given a score of “+”. […] Lectins that caused cellular aggregation to give easily visible aggregates in a clear solution were given a score of “+++”.

E. asburiae = assay: as above; set-up: key: Where the addition of lectins did not cause the aggregation of cells, a score of “0” was assigned; Lectins that caused cellular-aggregation to give small flocs in a turbid suspension were given a score of “+”; A score of “++” was given to lectin-cell aggregate mixes that resulted in large aggregates seen by eye in a turbid suspension; Lectins that caused cellular aggregation to give easily visible aggregates in a clear solution were given a score of “+++”; conditions: cells O.D. 0.5 at 650 nm
Description: as §1, §2

C. aquaticum = assay: as above; set-up: key: Where the addition of lectins did not cause the aggregation of cells, a score of “0” was assigned; Lectins that caused cellular-aggregation to give small flocs in a turbid suspension were given a score of “+”; A score of “++” was given to lectin-cell aggregate mixes that resulted in large aggregates seen by eye in a turbid suspension; Lectins that caused cellular aggregation to give easily visible aggregates in a clear solution were given a score of “+++”; conditions: cells O.D. 0.5 at 650 nm
Description: as §1, §2

S. haemolyticus = assay: as above; set-up: key: Where the addition of lectins did not cause the aggregation of cells, a score of “0” was assigned; Lectins that caused cellular-aggregation to give small flocs in a turbid suspension were given a score of “+”; A score of “++” was given to lectin-cell aggregate mixes that resulted in large aggregates seen by eye in a turbid suspension; Lectins that caused cellular aggregation to give easily visible aggregates in a clear solution were given a score of “+++”; conditions: cells O.D. 0.5 at 650 nm
Description: as §1, §2

[1] = test system: Pseudomonas sp. Strain 2881; assay: Titration of ConA against bacterial suspension, aggregate size measured; conditions: within 5.0% S.E.
Description: Aggregates of different size were constructed by titrating cona against suspensions of bacteria and observing the formation of aggregates. These were visible by eye as well as by optical microscope (FIG. 1).
Aggregate size was measured. A parabolic relationship between the ratio of ConA and bacterial density was observed (Table 3). […] This hypothesis reflects that established for antibody:antigen precipitation reactions.
Within an optimal range of […] and 0.6 mg/ml ConA, bacterial aggregates of 10 to >100 μm diameter could be reproducibly formed with a lectin excess that enabled further bacteria to be sequestered to the surface of the aggregate. The aggregates could be readily disassociated by the addition of approximately 50 mM maltose, glucose or sucrose to ConA, followed by 30s of gentle pipetting. This is ideal for the accurate enumeration of viable bacteria based upon CFU measurement on nutrient agar.

[2] = test system: taxonomically distinct species of bacteria; assay: Lectins tested for potential to construct bacterial aggregates
Excerpt: We have selected the lectin Concanavalin A (ConA) as the most preferred (Sigma, Poole, Dorset, UK). Other lectins tested for their potential in the present invention were Wheat Germ Lectin (WGA), lectin from Limulus polyphemus and Peanut Agglutinin (PNA). […] However, ConA was the only lectin that strongly reacted with, and aggregated, over 15 taxonomically distinct species of bacteria. ConA was subsequently deemed the most preferable for use. However, any lectin is suitable for the invention as long as the lectin is capable of agglutinating the desired species.
as §1, §2

For Concanavalin A, the “extent of aggregation (score)” value (E. coli C600 (K12); lectin 1 × 10^−1 mg/mL) was “+++”, the “extent of aggregation (score)” value (E. coli C600 (K12); lectin 1 × 10^−2 mg/mL) was “+++” and the “extent of aggregation (score)” value (E. coli C600 (K12); lectin 1 × 10^−3 mg/mL) was “+”. The “extent of aggregation (score)” value (E. asburiae; lectin 1 × 10^−1 mg/mL) was “+”, the “extent of aggregation (score)” value (E. asburiae; lectin 1 × 10^−2 mg/mL) was “+” and the “extent of aggregation (score)” value (E. asburiae; lectin 1 × 10^−3 mg/mL) was 0. For the same molecule, the “extent of aggregation (score)” value (C. aquaticum; lectin 1 × 10^−1 mg/mL) was “++”, the “extent of aggregation (score)” value (C. aquaticum; lectin 1 × 10^−2 mg/mL) was “++” and the “extent of aggregation (score)” value (C. aquaticum; lectin 1 × 10^−3 mg/mL) was 0. The “extent of aggregation (score)” value (S. haemolyticus; lectin 1 × 10^−1 mg/mL) was “+++”, the “extent of aggregation (score)” value (S. haemolyticus; lectin 1 × 10^−2 mg/mL) was “++” and the “extent of aggregation (score)” value (S. haemolyticus; lectin 1 × 10^−3 mg/mL) was “+”. The Size of aggregate ([1]; Amount of ConA 0.001 mg/ml) was “No aggregation”, the Size of aggregate ([1]; Amount of ConA 0.01 mg/ml) was 11.2 μm and the Size of aggregate ([1]; Amount of ConA 0.05 mg/ml) was 53.4 μm. For the same molecule, the Size of aggregate ([1]; Amount of ConA 0.1 mg/ml) was 106.7 μm, the Size of aggregate ([1]; Amount of ConA 0.2 mg/ml) was 91.2 μm and the Size of aggregate ([1]; Amount of ConA 0.4 mg/ml) was 73.1 μm. For the same molecule, the Size of aggregate ([1]; Amount of ConA 0.6 mg/ml) was 55.4 μm, the Size of aggregate ([1]; Amount of ConA 0.8 mg/ml) was “No aggregation” and the Size of aggregate ([1]; Amount of ConA 1.0 mg/ml) was “No aggregation”. For the same molecule, the “taxonomically distinct species of bacteria strongly reacted with, and aggregated” value [2] was “over 15”.

B1: Lentil lectin (protein, UniProt P02870 31-210; P02870 218-269, looked up)
Lectin beta chain: TETTSFSITKFSPDQKNLIFQGDGYTTKGKLTLTKAVKSTVGRALYSTPIHIWDRDTGNVANFVTSFTFVIDAPSSYNVADEFTFFIAPVDTKPQTGGGYLGVFNSKEYDKTSQTVAVEFDTFYNAAWDPSNKERHIGIDVNSIKSVNTKSWNLQNGERANVVIAFNAATNVLTVTLTYP
Lectin alpha chain: VTSYTLNEVVPLKDVVPEWVRIGFSATTGAEFAAHEVHSWSFHSELGGTSSS
In the case of B1, the “extent of aggregation (score)” value (E. coli C600 (K12); lectin 1 × 10^−1 mg/mL) is reported as “+++”, the “extent of aggregation (score)” value (E. coli C600 (K12); lectin 1 × 10^−2 mg/mL) is reported as “++” and the “extent of aggregation (score)” value (E. coli C600 (K12); lectin 1 × 10^−3 mg/mL) is reported as “+”. For the same molecule, the “extent of aggregation (score)” value (E. asburiae; lectin 1 × 10^−1 mg/mL) was 0, the “extent of aggregation (score)” value (E. asburiae; lectin 1 × 10^−2 mg/mL) was 0 and the “extent of aggregation (score)” value (E. asburiae; lectin 1 × 10^−3 mg/mL) was 0. For the same molecule, the “extent of aggregation (score)” value (C. aquaticum; lectin 1 × 10^−1 mg/mL) was “++”, the “extent of aggregation (score)” value (C. aquaticum; lectin 1 × 10^−2 mg/mL) was “+” and the “extent of aggregation (score)” value (C. aquaticum; lectin 1 × 10^−3 mg/mL) was 0. For the same molecule, the “extent of aggregation (score)” value (S. haemolyticus; lectin 1 × 10^−1 mg/mL) was “+++”, the “extent of aggregation (score)” value (S. haemolyticus; lectin 1 × 10^−2 mg/mL) was “+” and the “extent of aggregation (score)” value (S. haemolyticus; lectin 1 × 10^−3 mg/mL) was “+”.
